Tests used:
[1] = molecular target: Res 2 (L33S) Env from HIV-1 strain HXB2 (HIV-1 strain HXB2), P04578; test: cell-based or functional assay
[2] = molecular target: Res 3 Env (N637K) from HIV-1 strain HXB2 (HIV-1 strain HXB2), P04578; test: cell-based or functional assay
[3] = molecular target: Res 4 (SDTV) Env from HIV-1 strain HXB2 (HIV-1 strain HXB2), P04578; test: cell-based or functional assay
[4] = molecular target: V549E mutant Env (Res1) from HIV-1 strain HXB2 (HIV-1 strain HXB2), P04578; test: cell-based or functional assay
[5] = molecular target: wild type Env (gp120/gp41) from HIV-1 strain HXB2 (HIV-1 strain HXB2), P04578; test: cell-based or functional assay
[6] = molecular target: N36 (HIV-1), P04578; test: estimated Kd; method not stated
[7] = molecular target: N36 (HIV-1), P04578; test: estimated Kd; method not stated; reference is wild type C37 on N36

HTTWMEWDREINKYISLIHSLIEESQNQQEKNEQELL (modifications not checked) [C37-KYI]
IC50, nM; inhibitory potency against pseudotyped HIV-1 [1]: 1 nM | IC50, nM; inhibitory potency against pseudotyped HIV-1 [2]: 4.1 nM | IC50, nM; inhibitory potency against pseudotyped HIV-1 [3]: 0.6 nM | IC50, nM; inhibitory potency against pseudotyped HIV-1 [4]: 4.2 nM | IC50, nM; inhibitory potency against pseudotyped HIV-1 [5]: 1 nM | Kd [6]: 0.04 pM | fold lower Kd than wild type C37 [7]: > 20 fold
